In patent US20250019454A1:

Key:
[1] = target: ΔCRD1-TNFR2 protein (with CRD1 deletion), on CHO-S cells (human) (UniProt P20333); experiment: FACS on CHO-S cells with ΔCRD1-TNFR2, secondary antibody alone (background control)
[2] = target: ΔCRD2-TNFR2 protein (with CRD2 deletion), on CHO-S cells (human) (UniProt P20333); experiment: FACS on CHO-S cells with ΔCRD2-TNFR2, secondary antibody alone (background control)
[3] = target: ΔCRD3-TNFR2 protein (with CRD3 deletion), on CHO-S cells (human) (UniProt P20333); experiment: FACS on CHO-S cells with ΔCRD3-TNFR2, secondary antibody alone (background control)
[4] = target: ΔCRD4-TNFR2 protein (with CRD4 deletion), on CHO-S cells (human) (UniProt P20333); experiment: FACS on CHO-S cells with ΔCRD4-TNFR2, secondary antibody alone (background control)
ΔCRD4-TNFR2 protein (with CRD4 deletion), on CHO-S cells (human), sequence (P20333 other isoform, or with tags, fused parts or gaps mutant): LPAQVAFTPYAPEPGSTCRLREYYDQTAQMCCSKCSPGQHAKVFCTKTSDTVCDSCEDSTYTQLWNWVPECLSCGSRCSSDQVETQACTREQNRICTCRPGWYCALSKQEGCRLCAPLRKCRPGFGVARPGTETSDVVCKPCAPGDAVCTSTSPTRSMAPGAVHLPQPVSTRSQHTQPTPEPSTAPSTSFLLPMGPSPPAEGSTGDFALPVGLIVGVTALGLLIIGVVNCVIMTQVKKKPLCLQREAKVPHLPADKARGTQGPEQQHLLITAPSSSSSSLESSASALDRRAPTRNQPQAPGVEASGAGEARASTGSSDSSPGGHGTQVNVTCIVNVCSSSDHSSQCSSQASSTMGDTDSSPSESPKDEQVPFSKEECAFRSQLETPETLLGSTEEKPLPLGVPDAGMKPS

ΔCRD2-TNFR2 protein (with CRD2 deletion), on CHO-S cells (human), sequence (P20333 other isoform, or with tags, fused parts or gaps mutant): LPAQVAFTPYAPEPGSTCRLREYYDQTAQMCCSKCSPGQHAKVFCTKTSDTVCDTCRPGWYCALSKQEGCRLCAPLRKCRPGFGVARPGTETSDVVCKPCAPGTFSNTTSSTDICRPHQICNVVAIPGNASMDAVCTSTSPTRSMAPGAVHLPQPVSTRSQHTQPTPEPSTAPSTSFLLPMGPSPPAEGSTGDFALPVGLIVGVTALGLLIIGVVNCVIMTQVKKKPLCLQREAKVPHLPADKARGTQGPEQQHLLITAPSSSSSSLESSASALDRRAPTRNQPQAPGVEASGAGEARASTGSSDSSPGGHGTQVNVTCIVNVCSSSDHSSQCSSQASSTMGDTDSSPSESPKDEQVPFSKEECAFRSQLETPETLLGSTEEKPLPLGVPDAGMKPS
ΔCRD1-TNFR2 protein (with CRD1 deletion), on CHO-S cells (human), sequence (P20333 other isoform, or with tags, fused parts or gaps mutant): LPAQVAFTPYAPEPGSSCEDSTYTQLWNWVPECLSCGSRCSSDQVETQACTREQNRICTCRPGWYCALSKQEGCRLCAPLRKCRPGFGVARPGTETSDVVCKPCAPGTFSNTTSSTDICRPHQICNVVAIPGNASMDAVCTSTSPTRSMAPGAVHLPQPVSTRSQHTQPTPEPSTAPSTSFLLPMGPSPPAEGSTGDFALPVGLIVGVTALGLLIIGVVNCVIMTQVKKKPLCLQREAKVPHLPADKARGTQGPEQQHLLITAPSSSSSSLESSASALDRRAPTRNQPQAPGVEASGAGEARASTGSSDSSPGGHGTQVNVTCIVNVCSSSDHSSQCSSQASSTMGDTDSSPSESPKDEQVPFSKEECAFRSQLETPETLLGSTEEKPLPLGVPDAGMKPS
ΔCRD3-TNFR2 protein (with CRD3 deletion), on CHO-S cells (human), sequence (P20333 other isoform, or with tags, fused parts or gaps mutant): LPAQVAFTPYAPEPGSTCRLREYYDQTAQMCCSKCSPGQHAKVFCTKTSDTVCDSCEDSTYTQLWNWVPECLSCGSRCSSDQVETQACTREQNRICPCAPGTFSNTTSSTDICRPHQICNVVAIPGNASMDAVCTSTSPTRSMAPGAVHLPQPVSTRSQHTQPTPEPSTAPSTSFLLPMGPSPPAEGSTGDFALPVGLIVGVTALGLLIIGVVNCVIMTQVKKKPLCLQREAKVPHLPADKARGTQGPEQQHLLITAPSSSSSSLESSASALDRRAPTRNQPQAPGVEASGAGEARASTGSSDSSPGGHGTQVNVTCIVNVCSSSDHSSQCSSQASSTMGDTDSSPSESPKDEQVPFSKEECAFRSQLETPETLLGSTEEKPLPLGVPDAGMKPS

positive rate of binding (% of cells) [1]: 10.2%
positive rate of binding (% of cells) [2]: 7.33%
positive rate of binding (% of cells) [3]: 0.62%
positive rate of binding (% of cells) [4]: 1.02%
Substance: Secondary antibody (Alexa Fluor 647 AffiniPure F(ab')2 Fragment Goat Anti-Human IgG, Fcγ fragment specific, Jackson ImmunoResearch)
